# Results published in US6413935.
# Non-standard residues stand in square brackets, D forms with d. No end group written: not given here. Cha = N[C@@H](CC1CCCCC1)C(=O)O; 14 = not defined here
# Assays:
# [1] = molecular target: T1, mouse class II IA^d, purified from A20 cells (mouse), P04228; assay: assay standard, average IC50
# T1 chain 1: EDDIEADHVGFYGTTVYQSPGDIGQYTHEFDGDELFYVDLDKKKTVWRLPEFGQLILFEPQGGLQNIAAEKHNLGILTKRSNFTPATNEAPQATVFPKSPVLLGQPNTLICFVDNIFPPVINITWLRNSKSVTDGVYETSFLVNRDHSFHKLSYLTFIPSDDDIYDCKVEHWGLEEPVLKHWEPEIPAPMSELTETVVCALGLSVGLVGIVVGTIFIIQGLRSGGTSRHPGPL
# T1 chain 2: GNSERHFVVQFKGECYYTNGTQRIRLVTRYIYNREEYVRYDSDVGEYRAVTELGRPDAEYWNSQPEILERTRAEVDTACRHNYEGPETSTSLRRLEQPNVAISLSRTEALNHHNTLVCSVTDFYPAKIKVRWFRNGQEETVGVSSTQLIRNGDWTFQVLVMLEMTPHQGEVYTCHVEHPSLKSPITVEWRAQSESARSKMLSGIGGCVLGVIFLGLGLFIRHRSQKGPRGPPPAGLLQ
# [2] = molecular target: mouse class II IE^k, purified from CH12 cells (mouse); assay: 125I-peptide inhibition, purified class II
# [3] = molecular target: T1, mouse class II IA^d, purified from A20 …; assay: 125I-peptide inhibition, purified class II
# [4] = molecular target: T2, mouse class II IA^k, purified from CH12 cells (mouse), P01910; assay: 125I-peptide inhibition, purified class II
# T2 chain 1: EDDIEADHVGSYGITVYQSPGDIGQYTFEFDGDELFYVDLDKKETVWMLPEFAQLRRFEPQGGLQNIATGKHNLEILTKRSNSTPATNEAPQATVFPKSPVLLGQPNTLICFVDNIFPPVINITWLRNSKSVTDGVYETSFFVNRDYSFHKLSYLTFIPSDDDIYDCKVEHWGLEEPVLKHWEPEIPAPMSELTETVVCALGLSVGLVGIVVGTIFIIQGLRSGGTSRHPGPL
# T2 chain 2: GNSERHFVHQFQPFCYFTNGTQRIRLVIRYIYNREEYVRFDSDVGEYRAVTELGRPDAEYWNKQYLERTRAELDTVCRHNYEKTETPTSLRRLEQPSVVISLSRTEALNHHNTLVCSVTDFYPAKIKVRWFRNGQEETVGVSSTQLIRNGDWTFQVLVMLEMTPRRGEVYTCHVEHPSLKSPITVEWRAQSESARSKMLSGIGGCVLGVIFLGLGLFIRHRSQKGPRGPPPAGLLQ
# [5] = molecular target: mouse class II IE^d, purified from A20 cells (mouse); assay: 125I-peptide inhibition, purified class II
# [6] = molecular target: T3, HLA-DR5 (DRB1*11011), purified from SWEIG cells (human); assay: 125I-peptide inhibition, purified class II
# T3 chain 1: not shown
# T3 chain 2: not shown
# [7] = molecular target: T4, HLA-DR7 (DRB1*0701), purified from PITOUT cells (human); assay: 125I-peptide inhibition, purified class II
# T4 chain 1: not shown
# T4 chain 2: not shown
# [8] = molecular target: mouse class II IA^s, purified from LS102.9 cells (mouse); assay: 125I-peptide inhibition, purified class II
# [9] = molecular target: T5, HLA-DR3 (DRB1*0301), purified from MAT cells (human); assay: 125I-peptide inhibition, purified class II
# T5 chain 1: not shown
# T5 chain 2: not shown
# [10] = molecular target: T6, HLA-DR2w2a (DRB5*0101), purified from L416.3 transfected fibroblasts (human); assay: 125I-peptide inhibition, purified class II
# T6 chain 1: not shown
# T6 chain 2: not shown
# [11] = molecular target: HLA-DR1 (DRB1*0101), purified from LG2 cells (human); assay: 125I-peptide inhibition, purified class II
# [12] = molecular target: T7, HLA-DRw53 (DRB4*0101), purified from L257.6 transfected fibroblasts (human); assay: 125I-peptide inhibition, purified class II
# T7 chain 1: not shown
# T7 chain 2: not shown
# [13] = molecular target: mouse class II IE^d, purified from A20 cells (mouse); assay: assay standard, average IC50
# [14] = molecular target: T8, mouse class II IA^b, purified from DB27.4 cells (mouse), P14434; assay: 125I-peptide inhibition, purified class II
# T8 chain 1: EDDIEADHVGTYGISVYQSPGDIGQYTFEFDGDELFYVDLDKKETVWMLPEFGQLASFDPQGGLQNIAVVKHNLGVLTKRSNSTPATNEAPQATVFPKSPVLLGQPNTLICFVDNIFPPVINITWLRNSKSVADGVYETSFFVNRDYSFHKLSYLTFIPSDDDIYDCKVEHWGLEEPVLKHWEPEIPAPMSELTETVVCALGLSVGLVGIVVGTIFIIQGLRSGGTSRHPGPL
# T8 chain 2: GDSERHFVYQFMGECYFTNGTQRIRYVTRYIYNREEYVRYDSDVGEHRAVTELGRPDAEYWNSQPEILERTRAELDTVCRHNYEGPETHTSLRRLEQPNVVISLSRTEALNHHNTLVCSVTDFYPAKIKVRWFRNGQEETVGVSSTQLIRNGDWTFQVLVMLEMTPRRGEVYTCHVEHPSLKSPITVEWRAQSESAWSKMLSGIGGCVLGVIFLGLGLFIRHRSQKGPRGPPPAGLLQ
# [15] = molecular target: T9, HLA-DR4w4 (DRB1*0401), purified from PREISS cells (human); assay: 125I-peptide inhibition, purified class II
# T9 chain 1: not shown
# T9 chain 2: not shown
# [16] = molecular target: T10, HLA-DR52a (DRB3*0101), purified from MAT cells or TR81.19 transfected fibroblasts (human); assay: 125I-peptide inhibition, purified class II
# T10 chain 1: not shown
# T10 chain 2: not shown
# [17] = molecular target: T11, HLA-DR2w2b (DRB1*1501), purified from 3107 cells (human); assay: 125I-peptide inhibition, purified class II
# T11 chain 1: not shown
# T11 chain 2: not shown
# [18] = molecular target: T12, HLA-DR2w2a (DRB5*0101), purified from transfected fibroblasts L416.3 (human); assay: competition vs 125I-peptide, purified class II MHC
# T12 chain 1: not shown
# T12 chain 2: not shown
# [19] = molecular target: T13, HLA-DR4w4 (DRB1*0401), purified from cell line PREISS (human); assay: competition vs 125I-peptide, purified class II MHC
# T13 chain 1: not shown
# T13 chain 2: not shown
# [20] = molecular target: T14, HLA-DR3 (DRB1*0301), purified from cell line MAT (human); assay: competition vs 125I-peptide, purified class II MHC
# T14 chain 1: not shown
# T14 chain 2: not shown
# [21] = molecular target: T15, HLA-DR5 (DRB1*11011), purified from cell line SWEIG (human); assay: competition vs 125I-peptide, purified class II MHC
# T15 chain 1: not shown
# T15 chain 2: not shown
# [22] = molecular target: T2, mouse class II IA^k, purified from CH12 …; assay: assay standard, average IC50
# [23] = molecular target: T16, HLA-DR7 (DRB1*0701), purified from cell line PITOUT (human); assay: competition vs 125I-peptide, purified class II MHC
# T16 chain 1: not shown
# T16 chain 2: not shown
binder,measurement,setting,value
ISQAVHAAHAEINE (modifications not checked) [Ova 323-336],IC50,[1],110 nM
same,IC50,[2],700 nM
same,IC50,[3],110 nM
same,IC50,[4],1000 nM
[dA]A[Cha]IAAATLKAA[dA] [906.11],IC50,[2],14 nM
same,IC50,[5],13 nM
same,IC50,[6],2.4 nM
same,IC50,[7],31 nM
same,IC50,[8],98 nM
same,IC50,[9],100 nM
same,IC50,[10],1.3 nM
same,IC50,[11],0.38 nM
same,IC50,[12],41 nM
YLEDARRLKAIYEKKK (modifications not checked) [lambda rep 12-26],IC50,[13],170 nM
same,IC50,[3],1100 nM
same,IC50,[5],170 nM
same,IC50,[4],> 10000 nM
same,IC50,[14],> 10000 nM
[dA]A[Cha]VAAATLKAA[dA] [906.09],IC50,[15],2.6 nM
same,IC50,[2],11 nM
same,IC50,[3],38 nM
same,IC50,[5],31 nM
same,IC50,[7],76 nM
same,IC50,[9],280 nM
same,IC50,[10],2 nM
same,IC50,[11],0.61 nM
same,IC50,[16],588 nM
same,IC50,[12],93 nM
same,IC50,[14],31 nM
same,IC50,[17],14 nM
"[dA]K[14]VAAHTLKAA[dA]-NH2 (reading uncertain; also: printed as aK(14)VAAHTLKAAa-NH2) [peptide 955.15 (as printed), aK(14)…a-NH2]",IC50,[18],5.4 nM
same,IC50,[19],3.2 nM
same,IC50,[20],2500 nM
same,IC50,[21],29.9 nM
"YNTDGSTDYGILQINSR (modifications not checked) [HEL 46-61 (assay standard, with N-terminal Y)]",IC50,[22],20 nM
"[dA]K[14]VKAWTLKAA[dA]-NH2 (reading uncertain; also: printed as aK(14)VKAWTLKAAa-NH2) [peptide 965.021, aK(14)…a-NH2]",IC50,[20],1100 nM
same,IC50,[21],4.1 nM
same,IC50,[23],89.3 nM
